For this assay, the target named is recombinant Flag-DIC1B (rFlag-DIC1B). Description: pull-down; 2 μg Flag-DIC1B on anti-Flag magnetic beads, 2 μg each of Myc-ANXA7 and TIA1 added; NP40 lysis buffer with 0.5 M L-arginine, 4 °C; with or without 1 mM CaCl2; western blot. Background: In western blotting, separated proteins are transferred to a membrane and probed.

B1: recombinant TIA1 (rTIA1) (natural protein)
chain: MEDEMPKTLYVGNLSRDVTEALILQLFSQIGPCKNCKMIMDTAGNDPYCFVEFHEHRHAAAALAAMNGRKIMGKEVKVNWATTPSSQKKDTSSSTVVSTQRSQDHFHVFVGDLSPEITTEDIKAAFAPFGRISDARVVKDMATGKSKGYGFVSFFNKWDAENAIQQMGGQWLGGRQIRTNWATRKPPAPKSTYESNTKQLSYDEVVNQSSPSNCTVYCGGVTSGLTEQLMRQTFSPFGQIMEIRVFPDKGYSFVRFNSHESAAHAIVSVNGTTIEGHVVKCYWGKETLDMINPVQQQNQIGYPQPYGQWGQWYGNAQQIGQYMPNGWQVPAYGMYGQAWNQQGFNQTQSSAPWMGPNYGVQPPQGQNGSMLPNQPSGYRVAGYETQ
Consider B1, for which the fold change of TIA1 pulled down with DIC1B, with Myc-ANXA7 against without is 4 fold.

The values are drawn from PMC12706091.
